Source: US20160251440A1 (Ablynx, published 2016)

Experiments:
[1] = target: T1, human CD4, cell-expressed (human, UniProt P01730 26-458); experiment: FACS, MOLM-13 cells
T1 construct: whole, on cells

[2] = target: T1, human CD4, cell-expressed; experiment: FACS, MOLM-13 cells; remark: listed apart in the source
[3] = target: T1, human CD4, cell-expressed; experiment: cell-based or functional assay
[4] = target: T1, human CD4, cell-expressed; experiment: FACS, human T cells
[5] = target: T1, human CD4, cell-expressed; experiment: FACS, Jurkat E6-1 cells (CD4 low)
[6] = target: T1, human CD4, cell-expressed; experiment: cell-based or functional assay; remark: listed apart in the source
[7] = target: T1, human CD4, cell-expressed; experiment: cell-based or functional assay; remark: listed apart in the source
[8] = target: T2, human CXCR4 (on cells, viral lipoparticles or membrane extracts) (human, UniProt P61073 1-352); experiment: ELISA on coated hCXCR4 lipoparticles against null lipoparticles, anti-c-myc detection
T2 construct: whole, on cells; also called hCXCR4 VLPs; CXCR4-lip

[9] = target: T1, human CD4, cell-expressed; experiment: cell-based or functional assay; remark: listed apart in the source
[10] = target: T1, human CD4, cell-expressed; experiment: FACS, Jurkat E6.1 cells (CD4 no or low)
[11] = target: T1, human CD4, cell-expressed; experiment: FACS, THP-1 cells
[12] = target: T3, human IL12Rβ1, cell-expressed (human, UniProt P42701 24-662); experiment: flow cytometry on isolated CD8+ T cells of donor D863, anti-Flag detection
T3 construct: whole, on cells; in the context of the heterodimeric receptor; also called IL12Rb1

[13] = target: T2, human CXCR4 (on cells, viral …); experiment: [125I]-SDF-1 displacement, Hek-CXCR4 membrane extracts
[14] = target: T2, human CXCR4 (on cells, viral …); experiment: flow cytometry on THP-1 cells (CD4 and CXCR4), detection via tag
[15] = target: T2, human CXCR4 (on cells, viral …); experiment: FACS, MOLM-13 cells
[16] = target: T2, human CXCR4 (on cells, viral …); experiment: cell-based or functional assay
[17] = target: T2, human CXCR4 (on cells, viral …); experiment: cell-based or functional assay; remark: listed apart in the source
[18] = target: T2, human CXCR4 (on cells, viral …); experiment: cell-based or functional assay; remark: listed apart in the source
[19] = target: T2, human CXCR4 (on cells, viral …); experiment: flow cytometry on U-937 cells (CXCR4, virtually no IL-3Ra)
[20] = target: T2, human CXCR4 (on cells, viral …); experiment: cell-based or functional assay; remark: listed apart in the source
[21] = target: T2, human CXCR4 (on cells, viral …); experiment: cell-based or functional assay; remark: listed apart in the source
[22] = target: T4, recombinant IL-3Rα ectodomain (human, UniProt P26951 19-305); experiment: ELISA on recombinant IL-3Ra ectodomain (both lower panels)
T4 construct: extracellular domain; also called recombinant IL-3Ra; biotinylated-IL-3Rα ectodomain
T4 sequence (looked up): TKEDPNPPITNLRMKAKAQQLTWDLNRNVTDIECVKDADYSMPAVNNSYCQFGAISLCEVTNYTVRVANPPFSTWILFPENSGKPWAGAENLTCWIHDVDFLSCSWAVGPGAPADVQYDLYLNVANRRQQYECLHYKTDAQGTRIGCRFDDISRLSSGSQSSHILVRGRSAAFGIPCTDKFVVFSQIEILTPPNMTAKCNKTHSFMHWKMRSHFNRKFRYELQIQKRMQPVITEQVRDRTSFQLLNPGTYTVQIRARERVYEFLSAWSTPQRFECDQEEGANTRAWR

[23] = target: T2, human CXCR4 (on cells, viral …); experiment: flow cytometry on THP-1 cells (CXCR4 and IL-3Ra)
[24] = target: T2, human CXCR4 (on cells, viral …); experiment: FACS, Jurkat E6-1 cells
[25] = target: T2, human CXCR4 (on cells, viral …); experiment: cell-based or functional assay; remark: listed apart in the source
[26] = target: T2, human CXCR4 (on cells, viral …); experiment: FACS, Jurkat cells
[27] = target: T2, human CXCR4 (on cells, viral …); experiment: flow cytometry on MOLM-13 cells (IL-3Ra higher than CXCR4)

T2 sequence (P61073 whole entry): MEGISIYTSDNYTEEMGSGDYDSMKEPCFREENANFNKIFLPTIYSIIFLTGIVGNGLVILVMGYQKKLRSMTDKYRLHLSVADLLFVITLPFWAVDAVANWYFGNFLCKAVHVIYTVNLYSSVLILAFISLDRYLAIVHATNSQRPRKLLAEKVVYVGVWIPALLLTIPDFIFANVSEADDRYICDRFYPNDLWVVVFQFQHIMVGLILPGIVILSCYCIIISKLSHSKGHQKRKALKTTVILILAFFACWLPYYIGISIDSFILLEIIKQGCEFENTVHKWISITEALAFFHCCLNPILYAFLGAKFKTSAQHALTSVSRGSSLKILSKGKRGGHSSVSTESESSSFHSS

B1: 3F11 (VHH)
VHH: EVQLVESGGGSVQPGGSLTLSCGTSGRTFNVMGWFRQAPGKEREFVAAVRWSSTGIYYTQYADSVKSRFTISRDNAKNTVYLEMNSLKPEDTAVYYCAADTYNSNPARWDGYDFRGQGTQVTVSS
notes: also called CD4#8; 03F11
EC50 [1]: 0.6 nM
EC50 [2]: 0.7 nM
IC50, HIV-1 HE, MT-4 [3]: 10 nM
IC50, HIV-1 NL4.3, MT-4 [3]: 34.7 nM
IC50, HIV-2 ROD, MT-4 [3]: 22.7 nM
EC50 [4]: 0.76 nM
EC50 [5]: 61 nM
IC50, HIV-1 NL4.3 (X4), MT-4 [6]: 66.7 nM
IC50, HIV-1 NL4.3 (X4), PBMC [6]: 580 nM
IC50, HIV-1 NL4.3 (X4), U87 [6]: > 1330 nM
IC50, HIV-1 NL4.3 wt, MT-4 [7]: 34.7 nM
IC50, NL4.3 2G12 res., MT-4 [7]: 23.3 nM
IC50, NL4.3 AMD-3100 res., MT-4 [7]: 22.7 nM
IC50, NL4.3 CD4#8 res., MT-4 [7]: > 6700 nM
IC50, NL4.3 CXCL-12res., MT-4 [7]: 153 nM
IC50, NL4.3 CXCR4#2 res, MT-4 [7]: > 6700 nM
binding result [8]: no binding (tested: 100 nM)
IC50, HIV-1 NL4.3 neutralization, PBMCs [9]: 29.3 nM
EC50 [10]: 1.1 nM
EC50 [11]: 1 nM
binding result [12]: no binding (tested: 250 nM)

B2: 281F12 (VHH)
VHH: EVQLVESGGGLVQAGDSLRLSCAASGRAFSRYAMGWFRQAPGKEREFVAAIGWGPSKTNYADSVKGRFTISRDNAKNTVYLQMNTLKPEDTAVYSCAAKFVNTDSTWSRSEMYTYWGQGTLVTVSS
notes: also called CXCR4#2; 4CXCR281F12-FLAG3-HIS6
Ki [13]: 26.9 nM
EC50 (read off the curve) [14]: ~6 nM
EC50 [15]: 5.2 nM
IC50, HIV-1 HE, MT-4 [16]: 10 nM
IC50, HIV-1 NL4.3, MT-4 [16]: 22.7 nM
IC50, HIV-2 ROD, MT-4 [16]: 86.7 nM
IC50, SDF-1 chemotaxis, Jurkat [17]: 68 nM
IC50, SDF-1 chemotaxis, Jurkat E6-1 [18]: 84.2 nM
IC50, SDF-1 chemotaxis, MOLM-13 [18]: 86 nM
EC50 (read off the curve) [19]: ~10 nM
IC50, HIV-1 BaL (R5), PBMC [20]: > 1670 nM
IC50, HIV-1 NL4.3 (X4), MT-4 [20]: 67.1 nM
IC50, HIV-1 NL4.3 (X4), PBMC [20]: 29.3 nM
IC50, HIV-1 NL4.3 (X4), U87 [20]: > 6670 nM
IC50, HIV-1 NL4.3 wt, MT-4 [21]: 22.7 nM
IC50, NL4.3 2G12 res., MT-4 [21]: 17.3 nM
IC50, NL4.3 AMD-3100 res., MT-4 [21]: > 1670 nM
IC50, NL4.3 CD4#8 res., MT-4 [21]: 87.3 nM
IC50, NL4.3 CXCL-12res., MT-4 [21]: 220 nM
IC50, NL4.3 CXCR4#2 res, MT-4 [21]: 2330 nM
binding result [22]: no binding (tested: 1E-6 M)
EC50 (read off the curve) [23]: ~20 nM
EC50 [24]: 7 nM
IC50, CXCL-12 chemotaxis, Jurkat E6-1 [25]: 96.8 nM
IC50, CXCL-12 chemotaxis, MOLM-13 [25]: 86 nM
EC50 [26]: 7.8 nM
EC50 (read off the curve) [27]: ~20 nM
